Target: T1, human GARP (Glycoprotein A Repetitions Predominant, LRRC32) stably expressed on Pre-B (70Z/3) cells (human, UniProt Q14392 20-662)
T1 construct: whole, on cells; also called hGARP; huGARP
T1 sequence (looked up): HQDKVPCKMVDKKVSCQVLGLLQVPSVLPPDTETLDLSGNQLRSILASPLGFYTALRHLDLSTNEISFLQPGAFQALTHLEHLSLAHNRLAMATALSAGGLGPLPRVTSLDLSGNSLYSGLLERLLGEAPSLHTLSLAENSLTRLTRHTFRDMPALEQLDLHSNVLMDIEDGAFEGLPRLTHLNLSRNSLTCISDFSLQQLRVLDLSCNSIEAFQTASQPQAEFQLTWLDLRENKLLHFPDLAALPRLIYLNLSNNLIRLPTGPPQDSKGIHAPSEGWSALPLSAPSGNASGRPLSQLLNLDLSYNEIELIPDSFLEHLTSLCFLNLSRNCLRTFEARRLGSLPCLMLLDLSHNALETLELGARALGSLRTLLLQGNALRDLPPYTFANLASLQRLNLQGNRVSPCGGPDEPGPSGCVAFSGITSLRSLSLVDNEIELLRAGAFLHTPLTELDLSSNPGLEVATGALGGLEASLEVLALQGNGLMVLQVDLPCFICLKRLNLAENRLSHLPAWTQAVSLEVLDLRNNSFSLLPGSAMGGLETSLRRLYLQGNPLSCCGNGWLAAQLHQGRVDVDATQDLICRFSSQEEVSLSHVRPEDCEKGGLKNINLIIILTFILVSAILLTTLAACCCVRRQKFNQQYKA
Assay: flow cytometry on Pre-B cells stably expressing human GARP (FIG. 7A)

binding result: binds
B1: 5C5 anti-GARP monoclonal antibody (antibody, V domains shown)
VH: EVKLVESGGGSVKPGGSLKLSCAASGFTFSNYVMSWVRQTPEKRLEWVATISSGGSYTYYPDSVKGRLTISRDNAKNTLYLQMSSLRSEDTAMYYCARGYDNGDYVMDYWGQGTSVTVSS
VL: DIVLTQSPASLAVSLGQRATISCRASESVDTYGNSFMHWYQQIPGQPPKVLIYRASNLESGIPARFSGSGSRTDFTLTINPVEAGDVATYYCQQTNEHPPTFGGGTKLEIK
notes: Mouse hybridoma mAb; also called 5C5 (IgG2a)

Reference: patent US20210292433A1 (MUSC FOUNDATION FOR RESEARCH DEVELOPMENT, published 2021)
